These results are taken from article PMC12297522.

The target in test [1] is trastuzumab-PFc29 (human).
The target in test [2] is trastuzumab (wild-type Fc) (human).

Regarding “human FcRn-GST (from UniProt P55899 24-365) (receptor)”, the serum half-life in hiFcRn mice, 5 mg/kg i.v. in test [1] turned out to be 18.9 days. For the same substance, the serum half-life (t1/2) in hiFcRn mice, 5 mg/kg i.v. in test [2] worked out at 8.3 days.
In test [1], “mouse FcRn-GST (from UniProt Q61559 22-365) (receptor)” displayed a serum half-life in C57BL/6 mice, 5 mg/kg i.v. of 10.5 days. This substance also registered a serum half-life (t1/2) in C57BL/6 mice, 5 mg/kg i.v. in test [2] of 13.1 days.
